In patent US11142752B2, “Pullulanase mutant” (Jiangnan University, priority 2018, dated 2021):

What was measured:
[1] = test system: pullulanase of [Brevibacterium] halotolerans; test: Inhibitory effect of cyclodextrin on pullulanase enzyme activity (DNS method, pullulan substrate); format: biochemical
Excerpt: (§1) 2. Measurement of Enzyme Activity of the Pullulanase:
(§2) A 3,5-dinitrosalicylic acid (DNS) method is adopted. The pullulanase catalyzes the hydrolysis of pullulan to produce reducing sugar under certain conditions, 3,5-dinitrosalicylic acid and the reducing sugar are reduced under thermal conditions to produce a brown-red amino complex, the color depth is directly proportional to the amount of the reducing sugar within a certain range, and the measurement can be performed at the wavelength of 540 nm so as to calculate the enzyme activity. Enzyme activity unit definition: the amount of the enzyme that catalyzes the production of the reducing sugar equivalent to 1 μmol of glucose reducing power per minute is defined as one activity unit.
(§3) 3. Measurement of the Enzyme Activity Comprises the Following Steps:
(§4) A. preheating: putting 1 mL of a 1% pullulan solution of which the pH value is 6.0 and 0.1 mL of a buffer solution of which the pH value is 6.0 in a centrifuge tube, and performing thermal insulation for 10 min on a water bath of 40° C.;
(§5) B. reaction: adding 0.1 mL (10 U) of an enzyme solution, performing shaking and mixing uniformly, performing accurate timing for 30 min, adding 1.5 mL of DNS for stopping reaction, performing treatment in a boiling water bath for 10 min, and performing instant cooling; and
(§6) C. measurement: measuring the light absorption value under the condition of 540 nm, and calculating the activity.
(§7) Reduction of the Inhibitory Effect of Enzyme Activity Characterization:
(§8) A. preheating: putting 1 mL of the 1% pullulan solution of which the pH value is 6.0 and 0.1 mL of 10 mM cyclodextrin in the centrifuge tube, and performing thermal insulation for 10 min on the water bath of 40° C.;
(§9) B. reaction: adding 0.1 mL (10 U) of the enzyme solution, performing shaking and mixing uniformly, performing accurate timing for 30 min, adding 1.5 mL of DNS for stopping reaction, performing treatment in the boiling water bath for 10 min, and performing instant cooling; and
(§10) On the basis, the phenylalanine at the position 481 of the Geobacillus stearothermophilus, the phenylalanine at the position 478 of the [Brevibacterium] halotolerans and the phenylalanine at the position 476 of the […] are mutated, obtained mutants and the mutation effects are shown in the table below. The key amino acid site is applicable to the pullulanase from different sources.

[2] = test system: pullulanase of Bacillus halotolerans; test: as above; format: biochemical
Excerpt: as §1, §2, §3, §4, §5, §6, §7, §8, §9, §10

Row | Molecule | Reduction rate of specific enzyme activity in existence of α-CD ([1]; inhibitor α-CD) [%] | Reduction rate of specific enzyme activity in existence of β-CD ([1]; inhibitor β-CD) [%] | Reduction rate of specific enzyme activity in existence of γ-CD ([1]; inhibitor γ-CD) [%] | Reduction rate of specific enzyme activity in existence of α-CD ([2]; inhibitor α-CD) [%] | Reduction rate of specific enzyme activity in existence of β-CD ([2]; inhibitor β-CD) [%] | Reduction rate of specific enzyme activity in existence of γ-CD ([2]; inhibitor γ-CD) [%]
1 | [Brevibacterium] halotolerans Wild enzyme: wild pullulanase of [Brevibacterium] halotolerans (OEC77647.1, SEQ ID NO: 23) (protein, bacterial) MVSIQRSFEAYADEMNIITVLIPADQKDTFTPPFQLETDTAEIPLTVSQEWQIEGKCKYVCVAEQPVTFGKTHHVKASGGGKTDLQIGAVVRTDAFDAAFYYDGELGAVYTSDYTEFKVWAPAATSAAVKLSHPEKSGHTLQMTRMENGVYAVTVAGDLHGYEYVYRICNNLEWTETVDPYAKAVTVNGEKGVVLRPDQANSAPSLAPFSDPVDAIIYEMHIRDFSIHENSGMKNKGKYSALAETDTKTKNGSSTGLSYLKELGVTHIELLPLNDYAGVDEENPLAAYNWGYNPLHFFAPEGSYASNPHDPQTRNTEVKQMIHTLQQHGLRVILDVVYNHVYQREHSPFEKTVPGYFFRHDQFGMPSNGTGVGNDIASERRMARKFITDCVMYWLKEYDVDGFRFDLLGILDIETVLHMKEKASEVKPGILLFGEGWDLATPLPPEQKATLANASKMPGVGFFNDSFRDAVKGNTFHIAAAGFALGNGEQTETVMRGIAGSSGWKETAPLVSAPSQSINYVESHDNHTFWDKMSLALPQESESRKRSRQKLASAIILLAQGVPFIHSGQEFFRTKQGVENSYQSSDSINQLDWSRRETFKQDVDYVRRLISLRKAHPAFRLTSSADIQRCLECLALKEHLIVYRLFNLGAIDEWEEIIVIHHASPDSVTWQLPKDKAYRLLCDTDGFRADPGEIKKAVAVNGIGTVILF | 15.3 | 47.2 | 6.1 | – | – | –
2 | Bacillus halotolerans Wild enzyme: wild pullulanase of Bacillus halotolerans (WP_106020274.1, SEQ ID NO: 26) (protein, bacterial) MVCIQRSFEAYADEMNIITVLIPADQKDTFTPPFQLETDTAEIPLTVSQEWQIEGKYKYVCVAEQPVAFGKTHHVKASGGGKTDLQIGAVVRTDAFDAAFYYDGELGAVYASDYTEFKVWAPAATSAAVKLSHPEKSGYTLQMTRMENGVYAVTVAGDLHGYEYVYRICNNLEWTETVDPYAKAVTVNGEKGVVLRPDQANSAPSFTPFSAPVDAIIYEMHIRDFSIHENSGTKNKGKYAALAETDTKTKNGSSTGLSYLKELGVTHIELLPLNDYAGVDEENPLAAYNWGYNPLHFFAPEGSYSSNPHDPQTRNTEVKQMIHTLHQHGLRVILDVVYNHVYQREHSPFEKTVPGYFFRHDQFGMPSNGTGVGNDIASERRMARKFITDCVMYWLKEYDVDGFRFDLLGILDIETVLHMKEKASEVKSGILLFGEGWDLATPLPPEQKATLANASKMPGVGFFNDSFRDAVKGNTFHIAAAGFALGNGEKTETVMHGIAGSSGWKETAPLVSAPSQSINYVESHDNHTFWDKMSLALPQESESRKRSRQKLASAIILLAQGVPFIHSGQEFFRTKQGVENSYQSSDSINQLDWSRRETFKQDVDYVRRLISLRKAHPAFRLTSSADIQRCLECLALKEHLIVYRLFNLGAIDEWEEIIVIHHASPDSVTWQLPKDKAYRLLCDTDGFRADHGEIKKAVAVNGIGTVILYLARDLTSFA | – | – | – | 17.2 | 35.9 | 6.7
